# Assay results from article PMC5045167, “STN1 OB Fold Mutation Alters DNA Binding and Affects Selective Aspects of CST Function”.
# What was measured:
# [1] = molecular target: T1, CST(WT) (CTC1-STN1-TEN1) (human, UniProt Q2NKJ3;Q9H668;Q86WV5 1-1217;1-368;1-123); experiment: EMSA; 25 mM Tris pH 8.0, 1 mM DTT, 150 mM NaCl; EMSA 0.1 nM DNA, 30 min RT; filter binding 0.01 nM DNA, 18 h 4 C; crosslinking 20 nM CST, 2 nM DNA, UVA on ice; details: protein: recombinant; tags: N-terminal FLAG-CTC1, His-STN1; TEN1 untagged (Methods says all tags N-terminal); copies: 1;1;1; label: 32P
# [2] = molecular target: T1, CST(WT) (CTC1-STN1-TEN1); experiment: filter binding; Kd,app measured, value only in Fig 6C; 25 mM Tris pH 8.0, 1 mM DTT, 150 mM NaCl; EMSA 0.1 nM DNA, 30 min RT; filter binding 0.01 nM DNA, 18 h 4 C; crosslinking 20 nM CST, 2 nM DNA, UVA on ice; details: protein: recombinant; tags: N-terminal FLAG-CTC1, His-STN1; TEN1 untagged (Methods says all tags N-terminal); copies: 1;1;1; label: 32P
# [3] = molecular target: T2, CST(STN1-OBM) (human, UniProt Q2NKJ3;Q9H668;Q86WV5 1-1217;1-368;1-123, W89A;R139L;Y141A); experiment: EMSA; similar affinity to CST(WT); 25 mM Tris pH 8.0, 1 mM DTT, 150 mM NaCl; EMSA 0.1 nM DNA, 30 min RT; filter binding 0.01 nM DNA, 18 h 4 C; crosslinking 20 nM CST, 2 nM DNA, UVA on ice; details: protein: recombinant; tags: N-terminal FLAG-CTC1, His-STN1-OBM; TEN1 untagged; copies: 1;1;1; label: 32P
# [4] = molecular target: T1, CST(WT) (CTC1-STN1-TEN1); experiment: UV crosslinking; CTC1, STN1 and TEN1 crosslinked; 25 mM Tris pH 8.0, 1 mM DTT, 150 mM NaCl; EMSA 0.1 nM DNA, 30 min RT; filter binding 0.01 nM DNA, 18 h 4 C; crosslinking 20 nM CST, 2 nM DNA, UVA on ice; details: protein: recombinant; tags: N-terminal FLAG-CTC1, His-STN1; TEN1 untagged (Methods says all tags N-terminal); copies: 1;1;1; label: 32P
# [5] = molecular target: T1, CST(WT) (CTC1-STN1-TEN1); experiment: UV crosslinking; only CTC1 reproducibly crosslinked; 25 mM Tris pH 8.0, 1 mM DTT, 150 mM NaCl; EMSA 0.1 nM DNA, 30 min RT; filter binding 0.01 nM DNA, 18 h 4 C; crosslinking 20 nM CST, 2 nM DNA, UVA on ice; details: protein: recombinant; tags: N-terminal FLAG-CTC1, His-STN1; TEN1 untagged (Methods says all tags N-terminal); copies: 1;1;1; label: 32P
# [6] = molecular target: T1, CST(WT) (CTC1-STN1-TEN1); experiment: UV crosslinking; CTC1 and (less efficiently) STN1 crosslinked; 25 mM Tris pH 8.0, 1 mM DTT, 150 mM NaCl; EMSA 0.1 nM DNA, 30 min RT; filter binding 0.01 nM DNA, 18 h 4 C; crosslinking 20 nM CST, 2 nM DNA, UVA on ice; details: protein: recombinant; tags: N-terminal FLAG-CTC1, His-STN1; TEN1 untagged (Methods says all tags N-terminal); copies: 1;1;1; label: 32P
# [7] = molecular target: T1, CST(WT) (CTC1-STN1-TEN1); experiment: UV crosslinking; CTC1 and STN1 crosslinked; 25 mM Tris pH 8.0, 1 mM DTT, 150 mM NaCl; EMSA 0.1 nM DNA, 30 min RT; filter binding 0.01 nM DNA, 18 h 4 C; crosslinking 20 nM CST, 2 nM DNA, UVA on ice; details: protein: recombinant; tags: N-terminal FLAG-CTC1, His-STN1; TEN1 untagged (Methods says all tags N-terminal); copies: 1;1;1; label: 32P
# [8] = molecular target: T2, CST(STN1-OBM); experiment: EMSA; up to 20 nM CST; 25 mM Tris pH 8.0, 1 mM DTT, 150 mM NaCl; EMSA 0.1 nM DNA, 30 min RT; filter binding 0.01 nM DNA, 18 h 4 C; crosslinking 20 nM CST, 2 nM DNA, UVA on ice; details: protein: recombinant; tags: N-terminal FLAG-CTC1, His-STN1-OBM; TEN1 untagged; copies: 1;1;1; label: 32P
# [9] = molecular target: T1, CST(WT) (CTC1-STN1-TEN1); experiment: as above; details: protein: recombinant; tags: N-terminal FLAG-CTC1, His-STN1; TEN1 untagged (Methods says all tags N-terminal); copies: 1;1;1; label: 32P
# T2 sequence (Q2NKJ3 whole entry, chain 1 of 3): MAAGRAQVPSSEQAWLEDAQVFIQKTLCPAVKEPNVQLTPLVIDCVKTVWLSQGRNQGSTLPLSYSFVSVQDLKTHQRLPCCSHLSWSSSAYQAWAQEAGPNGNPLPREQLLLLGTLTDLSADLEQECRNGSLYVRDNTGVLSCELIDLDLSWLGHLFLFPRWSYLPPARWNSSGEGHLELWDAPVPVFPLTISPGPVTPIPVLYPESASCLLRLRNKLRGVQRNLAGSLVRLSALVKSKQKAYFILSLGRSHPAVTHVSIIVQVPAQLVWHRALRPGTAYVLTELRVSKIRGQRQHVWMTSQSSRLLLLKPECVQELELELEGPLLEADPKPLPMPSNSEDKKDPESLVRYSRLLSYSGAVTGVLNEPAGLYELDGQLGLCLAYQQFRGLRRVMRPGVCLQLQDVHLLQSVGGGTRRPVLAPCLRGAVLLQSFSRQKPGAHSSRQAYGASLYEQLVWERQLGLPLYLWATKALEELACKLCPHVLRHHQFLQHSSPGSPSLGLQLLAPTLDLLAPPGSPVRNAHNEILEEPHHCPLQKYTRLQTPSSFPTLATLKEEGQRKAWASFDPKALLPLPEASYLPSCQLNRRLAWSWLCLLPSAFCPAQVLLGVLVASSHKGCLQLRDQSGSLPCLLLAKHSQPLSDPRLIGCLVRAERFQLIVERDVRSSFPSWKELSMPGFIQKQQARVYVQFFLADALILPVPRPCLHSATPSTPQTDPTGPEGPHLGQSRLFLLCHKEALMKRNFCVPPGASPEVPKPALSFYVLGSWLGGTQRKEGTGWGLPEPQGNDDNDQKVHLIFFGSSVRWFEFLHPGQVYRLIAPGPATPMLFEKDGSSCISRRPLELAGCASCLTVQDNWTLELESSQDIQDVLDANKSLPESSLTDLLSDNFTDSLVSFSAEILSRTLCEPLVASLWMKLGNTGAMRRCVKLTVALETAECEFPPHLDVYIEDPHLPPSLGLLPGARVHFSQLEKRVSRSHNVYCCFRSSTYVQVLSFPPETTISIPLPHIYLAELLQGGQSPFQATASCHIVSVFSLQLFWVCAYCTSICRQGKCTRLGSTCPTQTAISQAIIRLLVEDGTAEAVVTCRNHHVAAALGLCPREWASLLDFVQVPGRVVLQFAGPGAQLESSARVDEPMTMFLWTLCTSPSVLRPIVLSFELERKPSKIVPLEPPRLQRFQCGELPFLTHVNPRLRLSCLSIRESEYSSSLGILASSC
# T2 sequence (Q9H668 whole entry W89A/R139L/Y141A, chain 2 of 3): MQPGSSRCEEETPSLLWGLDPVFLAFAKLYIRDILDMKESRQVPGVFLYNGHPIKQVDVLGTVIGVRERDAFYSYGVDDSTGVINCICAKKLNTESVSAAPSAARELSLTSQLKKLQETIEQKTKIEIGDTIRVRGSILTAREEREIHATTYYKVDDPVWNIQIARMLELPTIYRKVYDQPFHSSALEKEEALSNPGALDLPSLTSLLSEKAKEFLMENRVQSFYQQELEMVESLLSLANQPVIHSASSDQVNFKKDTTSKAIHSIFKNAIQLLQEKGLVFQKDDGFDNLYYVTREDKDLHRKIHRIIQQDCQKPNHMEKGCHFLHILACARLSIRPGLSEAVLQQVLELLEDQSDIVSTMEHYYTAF
# T2 sequence (Q86WV5 whole entry, chain 3 of 3): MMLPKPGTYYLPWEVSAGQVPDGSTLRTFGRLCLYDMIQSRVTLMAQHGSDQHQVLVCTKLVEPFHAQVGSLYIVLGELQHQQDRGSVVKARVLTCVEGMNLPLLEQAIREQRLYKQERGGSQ
# T1 sequence (Q2NKJ3 whole entry, chain 1 of 3): as the sequence (Q2NKJ3 whole entry, chain 1 of 3) above
# T1 sequence (Q9H668 whole entry, chain 2 of 3): as the sequence (Q9H668 whole entry W89A/R139L/Y141A, chain 2 of 3) above, with A89W, L139R, A141Y counted along it
# T1 sequence (Q86WV5 whole entry, chain 3 of 3): as the sequence (Q86WV5 whole entry, chain 3 of 3) above
binder,measurement,setting,value
AGCGTATCCGTTCAGTTGAGCGTATCCGTTCAGTTG (ssDNA) [NonTel-36],binding result,[1],binds
GGTTAGGGTTAGGGTTAG (ssDNA) [TelG-18],binding result,[2],binds
GGTTAGGGTTAGGGTTAGGGTTAGGGTTAGGGTTAGGGTTAGGGTTAG (ssDNA) [TelG-48],binding result,[1],binds
same,binding result,[3],binds
"GGTTAGGGTTAGGGTTAGGGTTAGGGTTAGGGTTAGGGTTAGGGTTAG (ssDNA, 4-thiothymidine at position 46 (third nt from 3' end)) [3'-s4T TelG-48]",binding result,[4],binds
"GGTTAGGGTTAGGGTTAGGGTTAGGGTTAGGGTTAGGGTTAGGGTTAG (ssDNA, 4-thiothymidine at position 3 (third nt from 5' end)) [5'-s4T TelG-48]",binding result,[5],binds
"GGTTAGGGTTAGGGTTAG (ssDNA, 4-thiothymidine at position 3 (third nt from 5' end)) [5'-s4T TelG-18]",binding result,[6],binds
"GGTTAGGGTTAGGGTTAG (ssDNA, 4-thiothymidine at position 16 (third nt from 3' end)) [3'-s4T TelG-18]",binding result,[7],binds
AGCGTATCCGTTCAGTTG (ssDNA) [NonTel-18],binding result,[8],no binding
same,binding result,[9],no binding
AGCGTATCCGTTCAGTTGAGCGTATCCGTTCAGTTGAGCGTATCCGTT (ssDNA) [NonTel-48],binding result,[1],binds
same,binding result,[3],binds
